Results reported in US11884708B2, “Stapled peptide inhibitors of nemo as potential anti-inflammatory and anti-cancer drugs” (INSTITUT PASTEUR, priority 2015, dated 2024).
Where a SMILES comes first, the peptide text is derived from it. Bridges are numbered along the chain shown (N, C = ends). [ ]: non-standard residue; d: D form. The star is where a group is joined. Succinimide(1-Et,3-yl) = CCN1C(=O)CC(*)C1=O; R8 = C=CCCCCCC[C@@](C)(N)C(=O)O; S5 = C=CCCC[C@](C)(N)C(=O)O; Aib = CC(C)(N)C(=O)O

Experiment: circular dichroism
Conditions: 10 mM sodium phosphate; pH 7; 1 °C; 50 uM

SMILES	helicity [rel %]
CC[C@H](C)[C@@H]1NC(=O)[C@H](CC(=O)O)NC(=O)[C@H](C)NC(=O)[C@H](CCC(N)=O)NC(=O)[C@](C)(NC(=O)[C@H](CCCCN)NC(=O)[C@H](CC(C)C)NC(=O)[C@H](CSC2CC(=O)N(CC)C2=O)NC(C)=O)CCCCCC/C=C/CCC[C@@](C)(C(=O)N[C@@H](CCCNC(=N)N)C(=O)N[C@@H](Cc2ccccc2)C(=O)N[C@@H](CCC(N)=O)C(=O)N[C@@H](C)C(=O)N[C@@H](CCC(=O)O)C(=O)N[C@@H](CCCNC(=N)N)C(=O)N[C@@H](Cc2c[nH]cn2)C(=O)N[C@@H](C)C(=O)N[C@@H](CCCNC(=N)N)C(=O)N[C@@H](CCC(=O)O)C(=O)N[C@@H](CCCCN)C(N)=O)NC(=O)[C@H](CCCCN)NC(=O)[C@H](Cc2ccc(O)cc2)NC1=O (stereo partly shown) (Ac-C(Succinimide(1-Et,3-yl))LK[R8]QADIYK[S5]RFQAERHAREK-NH2; staple (E) 4-11)	80
CC[C@H](C)[C@H](NC(=O)[C@H](CC(=O)O)NC(=O)[C@H](C)NC(=O)[C@H](CCC(N)=O)NC(=O)[C@H](C)NC(=O)[C@H](CCCCN)NC(=O)[C@H](CC(C)C)NC(=O)[C@H](CSC1CC(=O)N(CC)C1=O)NC(C)=O)C(=O)N[C@@H](Cc1ccc(O)cc1)C(=O)N[C@@H](CCCCN)C(=O)N[C@@H](C)C(=O)N[C@@H](CCCNC(=N)N)C(=O)N[C@@H](Cc1ccccc1)C(=O)N[C@@H](CCC(N)=O)C(=O)N[C@@H](C)C(=O)N[C@@H](CCC(=O)O)C(=O)N[C@@H](CCCNC(=N)N)C(=O)N[C@@H](Cc1c[nH]cn1)C(=O)N[C@@H](C)C(=O)N[C@@H](CCCNC(=N)N)C(=O)N[C@@H](CCC(=O)O)C(=O)N[C@@H](CCCCN)C(N)=O (stereo partly shown) (Ac-C(Succinimide(1-Et,3-yl))LKAQADIYKARFQAERHAREK-NH2)	42
CC[C@H](C)[C@@H]1NC(=O)[C@H](CC(=O)O)NC(=O)[C@H](C)NC(=O)[C@H](CCC(N)=O)NC(=O)[C@](C)(NC(=O)[C@H](CCCCN)NC(=O)[C@H](CC(C)C)NC(=O)[C@H](CSC2CC(=O)N(CC)C2=O)NC(C)=O)CCCCCC/C=C\CCC[C@@](C)(C(=O)N[C@@H](CCCNC(=N)N)C(=O)N[C@@H](Cc2ccccc2)C(=O)N[C@@H](CCC(N)=O)C(=O)N[C@@H](C)C(=O)N[C@@H](CCC(=O)O)C(=O)N[C@@H](CCCNC(=N)N)C(=O)N[C@@H](Cc2c[nH]cn2)C(=O)N[C@@H](C)C(=O)N[C@@H](CCCNC(=N)N)C(=O)N[C@@H](CCC(=O)O)C(=O)N[C@@H](CCCCN)C(N)=O)NC(=O)[C@H](CCCCN)NC(=O)[C@H](Cc2ccc(O)cc2)NC1=O (stereo partly shown) (Ac-C(Succinimide(1-Et,3-yl))LK[R8]QADIYK[S5]RFQAERHAREK-NH2; staple (Z) 4-11)	63
CCN1C(=O)CC(SC[C@H](NC(C)=O)C(=O)N[C@@H](CC(C)C)C(=O)N[C@@H](CCCCN)C(=O)N[C@@]2(C)CCCC=CCCC[C@@](C)(C(=O)N[C@@H](Cc3ccc(O)cc3)C(=O)N[C@@H](CCCCN)C(=O)N[C@@H](C)C(=O)N[C@@H](CCCNC(=N)N)C(=O)N[C@@H](Cc3ccccc3)C(=O)N[C@@H](CCC(N)=O)C(=O)N[C@@H](C)C(=O)N[C@@H](CCC(=O)O)C(=O)N[C@@H](CCCNC(=N)N)C(=O)N[C@@H](Cc3c[nH]cn3)C(=O)N[C@@H](C)C(=O)N[C@@H](CCCNC(=N)N)C(=O)N[C@@H](CCC(=O)O)C(=O)N[C@@H](CCCCN)C(N)=O)NC(=O)[C@H](CC(=O)O)NC(=O)[C@H](C)NC(=O)[C@H](CCC(N)=O)NC2=O)C1=O (stereo partly shown) (Ac-C(Succinimide(1-Et,3-yl))LK[S5]QAD[S5]YKARFQAERHAREK-NH2; staple 4-8)	70
CC[C@H](C)[C@H](NC(=O)[C@H](CC(=O)O)NC(=O)C(C)(C)NC(=O)[C@H](CCC(N)=O)NC(=O)C(C)(C)NC(=O)[C@H](CCCCN)NC(=O)[C@H](CC(C)C)NC(=O)[C@H](CSC1CC(=O)N(CC)C1=O)NC(C)=O)C(=O)N[C@@H](Cc1ccc(O)cc1)C(=O)N[C@@H](CCCCN)C(=O)NC(C)(C)C(=O)N[C@@H](CCCNC(=N)N)C(=O)N[C@@H](Cc1ccccc1)C(=O)N[C@@H](CCC(N)=O)C(=O)NC(C)(C)C(=O)N[C@@H](CCC(=O)O)C(=O)N[C@@H](CCCNC(=N)N)C(=O)N[C@@H](Cc1c[nH]cn1)C(=O)NC(C)(C)C(=O)N[C@@H](CCCNC(=N)N)C(=O)N[C@@H](CCC(=O)O)C(=O)N[C@@H](CCCCN)C(N)=O (stereo partly shown) (Ac-C(Succinimide(1-Et,3-yl))LK[Aib]Q[Aib]DIYK[Aib]RFQ[Aib]ERH[Aib]REK-NH2)	49
CC[C@H](C)[C@@H]1NC(=O)[C@@](C)(NC(=O)[C@H](C)NC(=O)[C@H](CCC(N)=O)NC(=O)[C@H](C)NC(=O)[C@H](CCCCN)NC(=O)[C@H](CC(C)C)NC(=O)[C@H](CSC2CC(=O)N(CC)C2=O)NC(C)=O)CCCC=CCCC[C@@](C)(C(=O)N[C@@H](CCCNC(=N)N)C(=O)N[C@@H](Cc2ccccc2)C(=O)N[C@@H](CCC(N)=O)C(=O)N[C@@H](C)C(=O)N[C@@H](CCC(=O)O)C(=O)N[C@@H](CCCNC(=N)N)C(=O)N[C@@H](Cc2c[nH]cn2)C(=O)N[C@@H](C)C(=O)N[C@@H](CCCNC(=N)N)C(=O)N[C@@H](CCC(=O)O)C(=O)N[C@@H](CCCCN)C(N)=O)NC(=O)[C@H](CCCCN)NC(=O)[C@H](Cc2ccc(O)cc2)NC1=O (stereo partly shown) (Ac-C(Succinimide(1-Et,3-yl))LKAQA[S5]IYK[S5]RFQAERHAREK-NH2; staple 7-11)	65
CC[C@H](C)[C@H](NC(=O)[C@H](CC(=O)O)NC(=O)[C@H](C)NC(=O)[C@H](CCC(N)=O)NC(=O)[C@H](C)NC(=O)[C@H](CCCCN)NC(=O)[C@H](CC(C)C)NC(=O)[C@H](CSC1CC(=O)N(CC)C1=O)NC(C)=O)C(=O)N[C@@H](Cc1ccc(O)cc1)C(=O)N[C@@H](CCCCN)C(=O)N[C@@]1(C)CCCC=CCCC[C@@](C)(C(=O)N[C@@H](CCC(=O)O)C(=O)N[C@@H](CCCNC(=N)N)C(=O)N[C@@H](Cc2c[nH]cn2)C(=O)N[C@@H](C)C(=O)N[C@@H](CCCNC(=N)N)C(=O)N[C@@H](CCC(=O)O)C(=O)N[C@@H](CCCCN)C(N)=O)NC(=O)[C@H](CCC(N)=O)NC(=O)[C@H](Cc2ccccc2)NC(=O)[C@H](CCCNC(=N)N)NC1=O (stereo partly shown) (Ac-C(Succinimide(1-Et,3-yl))LKAQADIYK[S5]RFQ[S5]ERHAREK-NH2; staple 11-15)	65
